Consider five molecules from patent US10039841B2, “Gene therapy vector system and prodrug genes” (The Industry & Academic Cooperation in Chungnam National …, priority 2016, dated 2018).

This data set has as its system U-87MG cells. The data set is described as follows: Investigation of drug sensitivity against GCV and 5-FC (cell death of serially infected cells). In kind it is cell-based. How it is done: The drug sensitivity against ganciclovir (GCV) and 5-fluorocytosine (5-FC) of the virus spRRVe-P1-yCD/sRRVgp-P1-TK produced in Example <3-1> was investigated.
Overall, 293T cells were co-transfected with spRRVe-P1-yCD/sRRVgp-P1-TK by using PLUS reagent (Invitrogen) and lipofectamine (Invitrogen). 2 days later, the supernatant was obtained. The U-87MG cells sub-cultured on the previous day in a 6-well plate at the density of 1.5×10^3 cells/well were added with 8 μl/ml of polybrene, followed by infection with the virus for 8 hours. 5 days after the infection (post-infection 5 d), the supernatant was obtained. The U-87MG cells sub-cultured on the previous day in a 6-well plate at the density of 1.5×10^3 cells/well were infected with the supernatant (p1). The infection was continued serially until p4 phase. The cells of each phase were treated with trypsin-EDTA to prepare single cells. The prepared single cells were distributed in a 12-well plate at the density of 1.5×10^3 cells/well. From the next day of the sub-culture, the cells were treated with […] of GCV and 1 mM 5-FC for 5 days or 8 days, followed by investigation of cell death.
The drug sensitivity of the virus produced in Example <6-2> against GCV and 5-FC was investigated by the same manner as described in Example <3-5> except that the virus produced in Example <6-2> was co-transfected.
The drug sensitivity of the virus produced in Example <7-2> against GCV and 5-FC was investigated by the same manner as described in Example <3-5> except that the virus produced in Example <7-2> was co-transfected to infect stepwise from p1 to p9 and cell death was observed after treating GCV and 5-FC for 9 or 12 days, respectively.
The drug sensitivity of the virus produced in Example <8-2> against GCV and 5-FC was investigated by the same manner as described in Example <3-5> except that the virus produced in Example <8-2> was co-transfected to infect stepwise from p1 to p11 and cell death was observed after treating GCV and 5-FC for 5 or 7 days.
The drug sensitivity of the virus produced in Example <10-2> against GCV and 5-FC was investigated by the same manner as described in Example <3-5> except that the virus produced in Example <10-2> was co-transfected to infect stepwise from p1 to p5 and cell death was observed after treating GCV and 5-FC for 6 or 8 days, respectively.
The drug sensitivity of the virus produced in Example <11-2> against GCV and 5-FC was investigated by the same manner as described in Example <3-5> except that the virus produced in Example <11-2> was co-transfected to infect stepwise from p1 to p9 and cell death was observed after treating GCV and 5-FC for 8 or 12 days, respetively.

[1] abbreviates: Example 8-3, combined with sRRVgp-P2-TK, p1 to p11, treated 5 or 7 days.

B1: CD4: CD gene where 32 sites showing recombination were all mutated (SEQ. ID. NO: 19) (nucleic acid)
DNA: ATGGTGACAGGGGGAATGGCAAGCAAGTGGGATCAGAAGGGTATGGACATTGCCTATGAGGAGGCGGCCTTAGGTTACAAAGAGGGTGGTGTTCCTATTGGCGGATGTCTTATCAATAACAAAGACGGAAGTGTTCTCGGTCGTGGTCACAACATGAGATTTCAAAAGGGATCCGCCACACTACATGGTGAGATCTCCACTTTGGAGAACTGCGGCAGGCTGGAAGGCAAGGTGTACAAAGATACCACTCTGTACACCACCCTGTCTCCATGCGACATGTGTACAGGTGCCATCATCATGTATGGTATTCCACGCTGTGTTGTCGGTGAGAACGTTAATTTCAAAAGTAAGGGCGAGAAATACTTGCAAACCAGGGGCCACGAGGTGGTGGTTGTTGACGATGAGAGGTGTAAAAAGATCATGAAACAATTTATCGATGAAAGACCTCAGGACTGGTTCGAGGACATCGGCGAGTAA
modifications: CD4 gene
Take B1: where the note is “Example 6-3, spRRVe-P1-CDs/sRRVgp-P1-TK, p1-p4”, the “drug sensitivity against 5-FC” value was “weak drug sensitivity”.

B2: CD8: yeast CD gene optimized by human codon (SEQ. ID. NO: 23) (nucleic acid)
DNA: ATGGTTACTGGGGGAATGGCATCTAAGTGGGATCAGAAAGGTATGGACATCGCTTATGAAGAGGCTGCTCTCGGCTACAAAGAGGGTGGAGTGCCTATCGGAGGGTGCCTGATCAACAACAAGGACGGCAGTGTGCTGGGGAGGGGCCACAATATGAGGTTCCAAAAAGGCTCCGCCACTCTCCACGGGGAAATTAGTACCCTCGAGAATTGCGGACGATTGGAAGGGAAGGTGTACAAGGATACAACACTGTACACCACCCTGTCACCCTGTGATATGTGCACAGGCGCCATTATCATGTACGGAATCCCTAGATGTGTCGTGGGGGAGAATGTAAACTTCAAAAGTAAGGGGGAGAAATATCTCCAGACCCGGGGGCACGAAGTCGTCGTTGTGGACGATGAACGGTGTAAGAAGATCATGAAGCAGTTTATCGATGAGAGGCCCCAGGACTGGTTCGAAGACATCGGGGAATAA
modifications: CD8 gene
As for B2, the “drug sensitivity against 5-FC” value under setting [1] is given as “excellent drug sensitivity, compared to yCD gene”.

B3: CD6: yeast CD gene optimized by human codon (SEQ. ID. NO: 21) (nucleic acid)
DNA: ATGGTTACTGGAGGGATGGCCAGTAAATGGGACCAGAAGGGTATGGATATTGCATACGAGGAGGCCGCTTTGGGATACAAGGAGGGGGGTGTCCCTATAGGCGGTTGCCTGATCAATAATAAAGACGGCTCTGTCTTGGGAAGAGGACACAATATGCGCTTTCAGAAGGGAAGCGCCACCCTGCATGGAGAGATCTCTACCCTCGAAAATTGCGGAAGGCTCGAAGGCAAAGTTTACAAAGATACCACCCTCTACACAACGCTGTCCCCCTGTGATATGTGCACCGGTGCCATTATCATGTATGGCATCCCACGCTGCGTTGTAGGAGAGAATGTAAACTTCAAATCCAAGGGAGAGAAGTATCTCCAGACCCGAGGGCACGAAGTTGTGGTGGTGGACGATGAAAGGTGTAAGAAGATCATGAAGCAGTTCATAGATGAGCGGCCTCAGGACTGGTTCGAGGATATTGGCGAATGA
modifications: CD6 gene
With B3, the “drug sensitivity against 5-FC” value under setting [1] is reported as “excellent drug sensitivity, compared to yCD gene”. Also, where the note is “Example 10-3, spRRVe-P2-CDs (CD6, CD10-CD16)/sRRVgp-P2-TK, p1 to p5, treated 6 or 8 days”, the “drug sensitivity against GCV and 5-FC” value is recorded as “most excellent drug sensitivity”.

B4: yCD: yeast cytosine deaminase gene (SEQ. ID. NO: 16) (nucleic acid, listed as Saccharomyces cerevisiae)
DNA: ATGGTGACAGGGGGAATGGCAAGCAAGTGGGATCAGAAGGGTATGGACATTGCCTATGAGGAGGCGGCCTTAGGTTACAAAGAGGGTGGTGTTCCTATTGGCGGATGTCTTATCAATAACAAAGACGGAAGTGTTCTCGGTCGTGGTCACAACATGAGATTTCAAAAGGGATCCGCCACACTACATGGTGAGATCTCCACTTTGGAAAACTGTGGGAGATTAGAGGGCAAAGTGTACAAAGATACCACTTTGTATACGACGCTGTCTCCATGCGACATGTGTACAGGTGCCATCATCATGTATGGTATTCCACGCTGTGTTGTCGGTGAGAACGTTAATTTCAAAAGTAAGGGCGAGAAATATTTACAAACTAGAGGTCACGAGGTTGTTGTTGTTGACGATGAGA
Regarding B4, the “drug sensitivity against 5-FC” value (Example 3-5, 1 mM 5-FC for 5 days or 8 days, post-infection 5 d to p4) is recorded as “low drug sensitivity”.

B5: CD7: yeast CD gene optimized by human codon (SEQ. ID. NO: 22) (nucleic acid)
DNA: ATGGTAACTGGTGGCATGGCCTCAAAGTGGGATCAGAAAGGAATGGACATCGCTTACGAGGAGGCCGCACTGGGCTATAAGGAGGGCGGCGTCCCTATAGGCGGTTGCCTGATTAACAATAAAGACGGCTCAGTGCTGGGAAGGGGGCACAACATGAGATTTCAGAAAGGCAGCGCAACTCTGCACGGCGAAATCTCCACTCTGGAGAACTGCGGGCGGCTGGAGGGAAAGGTTTATAAAGATACTACCTTGTATACAACTCTGTCCCCCTGCGATATGTGCACCGGCGCCATCATAATGTACGGAATACCCAGGTGCGTGGTGGGAGAGAACGTGAATTTTAAGTCAAAAGGTGAGAAGTACCTGCAGACTCGCGGCCATGAGGTGGTTGTTGTTGACGATGAAAGGTGCAAGAAGATTATGAAGCAGTTCATTGATGAAAGACCCCAGGACTGGTTTGAGGATATCGGAGAGTAG
modifications: CD7 gene
Consider B5, for which, under setting [1], the “drug sensitivity against 5-FC” value is given as “excellent drug sensitivity, compared to yCD gene”.
